Measured values published in US20110217279.

T1: hBVR-derived substrate peptide GLKRNRYLSFHFK (hBVR aa222-234)
T1 sequence: GLKRNRYLSFHFKS

T2: variant peptide GLKRNRYLAFHFKSGSL
T2 sequence: GLKRNRYLAFHFKSGSL

T3: variant peptide GLKRNRYLAFHFK
T3 sequence: GLKRNRYLAFHFK

B1: GST-hBVR fusion protein (protein)
chain: MNAEPERKFGVVVVGVGRAGSVRMRDLRNPHPSSAFLNLIGFVSRRELGSIDGVQQISLEDALSSQEVEVAYICSESSSHEDYIRQFLNAGKHVLVEYPMTLSLAAAQELWELAEQKGKVLHEEHVELLMEEFAFLKKEVVGKDLLKGSLLFTSDPLEEDRFGFPAFSGISRLTWLVSLFGELSLVSATLEERKEDQYMKMTVCLETEKKSPLSWIEEKGPGLKRNRYLSFHFKSGSLENVPNVGVNKNIFLKDQNIFVQKLLGQFSEKELAAEKKRILHCLGLAEEIQKYCCSRK

Key:
[1] = tested on: T1, hBVR-derived substrate peptide GLKRNRYLSFHFK (hBVR aa222-234)
[2] = tested on: T2, variant peptide GLKRNRYLAFHFKSGSL
[3] = tested on: T3, variant peptide GLKRNRYLAFHFK
[4] = target: active recombinant human PKC-δ kinase (as a GST fusion protein), Q05655
Chain of active recombinant human PKC-δ kinase (as a GST fusion protein), Q05655 (Q05655 whole entry, looked up, stated change not applied, the tested form may be a part): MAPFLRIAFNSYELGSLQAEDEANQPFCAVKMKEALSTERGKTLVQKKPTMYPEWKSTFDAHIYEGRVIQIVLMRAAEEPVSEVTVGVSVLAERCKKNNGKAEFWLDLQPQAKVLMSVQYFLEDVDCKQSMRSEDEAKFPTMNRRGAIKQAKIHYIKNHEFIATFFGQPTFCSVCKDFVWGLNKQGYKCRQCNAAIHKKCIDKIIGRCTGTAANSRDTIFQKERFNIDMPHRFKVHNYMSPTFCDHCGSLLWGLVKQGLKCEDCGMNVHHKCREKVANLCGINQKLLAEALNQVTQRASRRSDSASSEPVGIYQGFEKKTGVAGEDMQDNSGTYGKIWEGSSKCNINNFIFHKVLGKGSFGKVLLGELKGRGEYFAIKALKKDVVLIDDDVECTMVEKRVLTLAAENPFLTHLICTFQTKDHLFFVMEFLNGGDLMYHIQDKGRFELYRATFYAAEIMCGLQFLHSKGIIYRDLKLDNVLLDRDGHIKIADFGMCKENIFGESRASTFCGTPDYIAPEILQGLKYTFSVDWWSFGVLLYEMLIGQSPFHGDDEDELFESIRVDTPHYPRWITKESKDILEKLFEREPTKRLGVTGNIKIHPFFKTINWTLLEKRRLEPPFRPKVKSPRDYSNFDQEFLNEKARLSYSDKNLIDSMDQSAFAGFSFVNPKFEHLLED

| Molecule | Km (phosphorylation of the peptide, in vitro kinase assay, Michaelis-Menten fit) [1] | phosphorylation of the peptide by PKC-δ (kinase assay, FIG. 4C) [2] | phosphorylation of the peptide by PKC-δ (kinase assay, FIG. 4C) [3] | PKC-δ autophosphorylation, phosphorylation of hBVR and kinase activity toward MBP (in vitro kinase assay) [4] |
| --- | --- | --- | --- | --- |
| active recombinant human PKC-δ kinase (as a GST fusion protein) | Km of 1.59±0.58 µM | As with the shorter peptide, the replacement of serine with alanine markedly decreased phosphorylation of the peptide | A variant peptide in which the target serine was replaced by alanine was, as expected, not a substrate for the kinase | – |
| recombinant PKC-βII | Km 14.03 µM | – | – | – |
| recombinant PKC-ζ | Km 6.89 µM | – | – | – |
| B1 | – | – | – | resulted in phosphorylation of hBVR concomitant with an enhanced PKC-δ autophosphorylation (FIG. 1A), and increased kinase activity toward the substrate, MBP (FIG. 1B) |
